Substitutions are numbered along the chain they refer to.
B1: 1E2 mutant (2u2f mutant from Cluster 1) (designed binder)
chain: AHKLFIGGLPVDYNDDQVKELLTSFGPLKAFNLVKDSATGLSKGYAFAEYVDINVTDQAIAGLNGNVCHLHTLLVQRASVGAKNADYKDDDDKLEHHHHHH
notes: Purified monomer from a pET22b vector in E. coli (IMAC, SEC); The tag is not described
B2: 1H2 mutant (2u2f mutant from Cluster 1) (designed binder)
chain: B1 chain with N66S, V67G, C68S, H69R, L70I, H71R, T72A
notes: as for B1
B3: 3B5 mutant (2u2f mutant from Cluster 3) (designed binder)
chain: B1 chain with V11A, Y13G, N14D, N66F, V67A, C68T, H69S, L70R, H71F, T72S
notes: as for B1
B4: 4H5 mutant (2u2f mutant from Cluster 4) (designed binder)
chain: B1 chain with V11D, D12Y, N14G, N66R, V67F, C68Y, H69G, L70T, H71A
notes: as for B1

These binders were tested against T1, Galectin-3 (UniProt P17931 1-250, limits assumed) (assay: ELISA, eight 2-fold dilutions starting from 1.5 uM).
T1 construct: Immobilized on magnetic particles for panning and on ELISA wells via NeutrAvidin; also called Gal-3; target Galectin-3
T1 sequence (P17931 whole entry): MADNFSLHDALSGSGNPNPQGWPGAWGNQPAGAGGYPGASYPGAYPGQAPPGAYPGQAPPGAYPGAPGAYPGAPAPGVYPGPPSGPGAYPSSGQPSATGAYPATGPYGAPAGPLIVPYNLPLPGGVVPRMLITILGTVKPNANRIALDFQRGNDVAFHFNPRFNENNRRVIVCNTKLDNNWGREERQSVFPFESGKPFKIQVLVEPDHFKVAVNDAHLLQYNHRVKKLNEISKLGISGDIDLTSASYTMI

**Q.** For B1, which EC50 is on record?
**A.** The EC50 was 92.5 nM.

**Q.** B2 was tested. Which EC50 did it give?
**A.** The EC50 was 79.9 nM.

**Q.** B3 was tested. Which EC50 did it give?
**A.** Its EC50 is 277 nM.

**Q.** How did the EC50 turn out when B4 was run?
**A.** Its EC50 is 201 nM.

From US20250182853A1 (TOHOKU UNIVERSITY, published 2025)
